Assays:
[1] = substrate: NC(=O)C1=CN([C@@H]2O[C@H](COP(=O)(O)OP(=O)(O)OC[C@H]3O[C@@H](n4cnc5c(N)ncnc54)[C@H](O)[C@@H]3O)[C@@H](O)[C@H]2O)C=CC1; experiment: ferrozine A562 ferric reductase assay; type: biochemical, Paramagnetospirillum magneticum; details: stimulation of ferric reductase activity, electron donor, FAD and ferric citrate present, pH 7.5
[2] = substrate: Cc1cc2nc3c(=O)[nH]c(=O)nc-3n(C[C@H](O)[C@H](O)[C@H](O)COP(=O)(O)OP(=O)(O)OC[C@H]3O[C@@H](n4cnc5c(N)ncnc54)[C@H](O)[C@@H]3O)c2cc1C; experiment: ferrozine A562 ferric reductase assay; type: biochemical, Paramagnetospirillum magneticum; details: stimulation of ferric reductase activity, co-substrates NADH and ferric citrate, pH 7.5, varied: cofactor

B1: Mms6 (Paramagnetospirillum magneticum AMB-1) (protein)
chain: VGGTIWTGKGLGLGLGLGLGAWGPIILGVVGAGAVYAYMKSRDIESAQSDEEVELRDALA
notes: micelles of about 13-15 nm
- Km [1]: 15 µM
- Km [2]: 25 µM

Reference: PMC9499114, “The Magnetosome Protein, Mms6 from Magnetospirillum magneticum Strain AMB-1, Is a Lipid-Activated Ferric Reductase” (International Journal of Molecular Sciences, 2022)
